Measurements as given in publication PMC10726430 (Cell metabolism, 2023).

Target: the molecule itself
Test: native gel or EMSA

B1: NSUN2-F1 (amino acid 1–767), recombinant NSUN2 protein (enzyme, human, UniProt Q08J23-1 1-767, looked up)
chain: MGRRSRGRRLQQQQRPEDAEDGAEGGGKRGEAGWEGGYPEIVKENKLFEHYYQELKIVPEGEWGQFMDALREPLPATLRITGYKSHAKEILHCLKNKYFKELEDLEVDGQKVEVPQPLSWYPEELAWHTNLSRKILRKSPHLEKFHQFLVSETESGNISRQEAVSMIPPLLLNVRPHHKILDMCAAPGSKTTQLIEMLHADMNVPFPEGFVIANDVDNKRCYLLVHQAKRLSSPCIMVVNHDASSIPRLQIDVDGRKEILFYDRILCDVPCSGDGTMRKNIDVWKKWTTLNSLQLHGLQLRIATRGAEQLAEGGRMVYSTCSLNPIEDEAVIASLLEKSEGALELADVSNELPGLKWMPGITQWKVMTKDGQWFTDWDAVPHSRHTQIRPTMFPPKDPEKLQAMHLERCLRILPHHQNTGGFFVAVLVKKSSMPWNKRQPKLQGKSAETRESTQLSPADLTEGKPTDPSKLESPSFTGTGDTEIAHATEDLENNGSKKDGVCGPPPSKKMKLFGFKEDPFVFIPEDDPLFPPIEKFYALDPSFPRMNLLTRTTEGKKRQLYMVSKELRNVLLNNSEKMKVINTGIKVWCRNNSGEEFDCAFRLAQEGIYTLYPFINSRIITVSMEDVKILLTQENPFFRKLSSETYSQAKDLAKGSIVLKYEPDSANPDALQCPIVLCGWRGKASIRTFVPKNERLHYLRMMGLEVLGEKKKEGVILTNESAASTGQPDNDVTEGQRAGEPNSPDAEEANSPDVTAGCDPAGVHPPR
B1: binds.
